# The DeepSol protein solubility set
# Experiment: soluble on expression in E. coli; label from the status in PepcDB or PDB records
row,Sequence,soluble on expression in E. coli
1,MSNDVYIIGAGETKFGELWDKSLRDLAVEAGLEAIKDANIYSKDLQMLYASNSLAGTINEQSNIAALAADFSGIAENHVPAVRVEASTASGGAAVREAYLAIKSGEYDVVMVGGVEKMTDIYGTEIIDVQSSILDREWESFNGATPAAMAAIAARRYMHDFNVEREAISMVAVNDHANASLNPDAQYRNKITVDQVLNSDPVAEPLNVFDCSPITDGASAIILASEGFVKKNRIDGVRIL,not soluble
2,MGSDKIHHHHHHMSCAHVLRTWAPCIMRRAEQALRNSSYLAWETAMGKLALAAKVTHVPSLYLSELDGPHKGCRQPAIDGHHEIGRRCRELGVDTIVVFDVHWLVNSEYHINCAPKFEGIYTSNELPHFIRNMPYAYPGNVELGNLIAEVASEMGVKSRAHSETTLELEYGTLVPMRYMNADQHFKAVSVAGWCVWHDLDTSVRFGLAVRKAIEERYEGTVAILASGSLSHHFANNGTAEQFMHKVWNPFLEQMDRKVVELWEAGDWKTFCEMLPLYNEKCWGEGGMHDTAMLLGALGWDRYEGKVEVVTPYFGSSGTGQINAIFPVTPLPV,not soluble
3,DGISSLLKPLSKIGLDTKTFALLISMTLRFVPILSDEFSTIVDAQRSRGLSLKTGSIVKRTKTLIPMIIPLISVAFKKALTLADTMEIRGFIDAKSRTSFHQLKFQKID,not soluble
4,MSHAHKKHKENAPKSLNFYVITISTSRYEKLLKKEPIVDESGDIIKQLLIENGHKIIGYSLVPDDKIKILKAFTDALSIDEVDVIISTGGTGYSPTDITVETIRKLFDREIEGFSDVFRLVSFNDPEVKAAAYLTKASAGIIGKKIVYLLPGSPDAVKLALKELILPEVGHLVYLVRS,soluble
5,MKCSKCGREAVYFAKYEGKYYCHKHFNEMVESKVKRTIRKYRMIKKGERIGVAVSGGKDSVVLLHLLAKLRKKFPFEIVAITIDEGIKGYRDKSIKVAKKNAELLGVEHHIYRFKDYIGFTLDETVEIMGARGERLGACSYCGVWRRWLLNKAAEELKVDKLALGLNLDDEVQMFLMNLMRGDVARLGRTGPYYEVIHEGLVPRIKPLREVPEKEIVLYAVLNNIEVDLSECPYAVEAFRAEIRDWLNEMEEKHPGTKYQLLRSYDKIFPLLAKTYAKKVKLNRCKICGQPTSGEICKACQFRLQVKERAEKLKFSLSQR,soluble
6,MVKETKFYDILGVPVTATDVEIKKAYRKCALKYHPDKNPSEEAAEKFKEASAAYEILSDPEKRDIYDQFGEDGLSGAGGAGGFPGGGFGFGDDIFSQFFGAGGAQRPRGPQRGKDIKHEISASLEELYKGRTAKLALNKQILCKECEGRGGKKGAVKKCTSCNGQGIKFVTRQMGPMIQRFQTECDVCHGTGDIIDPKDRCKSCNGKKVENERKILEVHVEPGMKDGQRIVFKGEADQAPDVIPGDVVFIVSERPHKSFKRDGDDLVYEAEIDLLTAIAGGEFALEHVSGDWLKVGIVPGEVIAPGMRKVIEGKGMPIPKYGGYGNLIIKFTIKFPENHFTSEENLKKLEEILPPRIVPAIPKKATVDECVLADFDPAKYNRTRASRGGANYDSDEEEQGGEGVQCASQ,not soluble
7,MGSDKIHHHHHHMLSMKNIVGKPQTIKKVNEDLIKNIIKNEGPITKPEISSITELSLATVNKIVEQLALKNEVKVSGLSESTGGRRAQLFEINANLEHIIALYYYRNCCIGVVANLLGEIIYQEEFNIRMDTYENVNQDTFFVIDTLIKKEKGNNIRAIGIGVPGVVKKGVVKNIPTIKSWEGINLENLIKSKYNTKVFIENDTNITTIGIYQKQYKDKYKNMALMYLEDGIGSGIVINGELYLGSTNFAGELSYLNIEFGKYNSNNLNLEDYIMSLRKRYLESKDNKFKKEILSIISNFIRTLVCVLNPQAMIIQCSILTKSDMEFIEKDVSNNVGEENFPKLIKVESLREGSINGVISMCLKETDYQYSLSNKKGGY,not soluble
8,MAHHHHHHMAISATGTLAVLKVYQLTDAAARLSRAEVDAALEELMGLRVNDSLVQYLSYCYVPPHRVVLVMQYVPGGTLREMKSRYGRKLPLTAVRRNVASMLRGLAHLHGRGVIHGRLCPENVMVGVEGRWRLKGMLLGAAPLIMHQETYYVSPEVAAGGAKTAANDVYALGLLLLAMLTDSHPWQWSANAALDRSRKELDSLLADSTAFREALRNGLLTPVPTPADTDETLRTVLEACLRTAPGDRPTALRLQELRCDRTS,not soluble
9,MGSDKIHHHHHHMDNPVMSAITSLYPQVQFLQRQAASLLLYQSVLQTDVGIAFQELLQAIRYADADARGSLQAYGNYFHALATRKQNWEDYLVSQILIAENPFSKVTQQQDFKDLPPALISAVKHDLQVLQSLYECNSAVLSQWVQAVAHLPISPVVWYLEQDDMGSETALSLHHLEHWADAVEELATHYQKFGIGLFAQYRALRWQDGEFVGIPYPDPVKLGTLVGYESQQEALLKNTEFLLSGEKALHVLLYGSRGAGKSSLVKALLNEYSHRQLRLLEVSKADLKDLPKIVEQLRGVPQKFIIFVDDLSFEEDDDAFKALKVVLEGNLTARPHNVVVYATSNRRHLIREFFADRPSLKNNEEVHAGDTMQEKLSFSDRFGLTLTFESADQSTYLKIVRHLATQAGISISPEELEYQALQWATRHNGRSGRTAQQFIDFLKADTSVFATNNSILDTQS,not soluble
10,MEYKSPVYGIIAVPIEKIESNDYNPNAVAPPEMQLLYKSIKEDGYTMPIVCYYNEEKDKYIIVDGFHRYRVMLENEDIYDRENGLLPVSVIDKSLDERMASTIRHNRARGSHNVDLMSKIITELCEIGKSDEWISKHLGMEVDEILRLKQITGLAYLFKDKEFGNAWIPFGSDIEEEN,not soluble
11,MSLKKIGVLGMGYVGIPAAVLFADAPCFEKVLGFQRNSKSSGYKIEMLNRGESPLKGEEPGLEELIGKVVKAGKFECTPDFSRISELDAVTLAIQTPFANPKDLEPDFSALIDGIRNVGKYLKPGMLVVLESTITPGTTEGMAKQILEEESGLKAGEDFALAHAPERVMVGRLLKNIREHDRIVGGIDEASTKRAVELYSPVLTVGQVIPMSATAAEVTKTAENTFRDLQIAAINQLALYCEAMGINVYDVRTGVDSLKGEGITRAVLWPGAGVGGHCLTKDTYHLERGVKIGRGELDYPEGADSIYVLARKVNDFMPAHMYNLTVAALERLGKKMDGSKVAMLGWAFIKDSDDARNTPSEPYRDLCLKAGASVMVHDPYVVNYPGVEISDNLEEVVRNADAIVVLAGHSAYSSLKADWAKKVSAKANPVIIDGRNVIEPDEFIGKGFVYKGIGREGHHHHHH,not soluble
12,MSLHSLQRKVLRTICPDQKGLIARITNICYKHELNIVQNNEFVDHRTGRFFMRTELEGIFNDSTLLADLDSALPEGSVRELNPAGRRRIVILVTKEAHCLGDLLMKANYGGLDVEIAAVIGNHDTLRSLVERFDIPFELVSHEGLSRNEHDQKMADAIDAYQPDYVVLAKYMRVLTPEFVARFPNKIINIHHSFLPAFIGARPYHQAYERGVKIIGATAHYVNDNLDEGPIIMQDVIHVDHTYTAEDMMRAGRDVEKNVLSRALYKVLAQRVFVYGNRTIILEGHHHHHH,soluble
13,GMYQTIEGFLQSWTYETESTQKMLDVLTDESLSQEIAPGHWTLGRVAWHIVTAIPVILSGTGLKFEGETKDYPVPTSAKTIADGYRKVNTAFVEALQSEWTDKDLTTINDFFGRPMPNSIFLMTLINHQNHHRGQMTVLMRQAGLTVPGVYGPAKEEWATAGMEAPKM,soluble
14,QRISLEIMTLQPRCEDVETAEGVALTVTGVAQVKIMTEKELLAVACEQFLGKNVQDIKNVVLQTLEGHLRSILGTLTVEQIYQDRDQFAKLVREVAAPDVGRMGIEILSFTIKDVYDKVDYLSSLGKTQT,soluble
15,MMNIQVLKVSGNGNINAIADTINKYVIEDGIVHIDAIGIKATYTTVKALIQVVESLVNKGYRFNLRPYYVKVNTAGNDIQPISKTAIRWTLIAKEK,soluble
16,MAHHHHHHMEKTIITLLPVVEKAPKENMERVLDVFRHYLKRYGADHYIYNAVMQAAAFAKNYEQAEQLFKEMETLGLEPNAQSYVNMMLAAKLCGLPPEKSEAYFKRAVKDGAMQSVMRMDTEFRMWMDQLDRLGSFTASSGYLSVNEEGAKPMPRDMWAIWGWHRSESKFISRRDLIMQQVRARVHSGKELVGTVYTKTRRQPWAKFNGMLRHDYNGPSYRAPTIFPDAPEYTNEAGHKAF,not soluble
17,MSAALVAQQVATLREQGFAVVRNFASPPVRQALRELALQHLAQTVDPVEYEADLKYPGAPSSRLAAGGQTVRRLLDAYGRDQRFRDWATQAAIGAFLRAYFQDTPVLSTVHHNCIMTKHPAFGSLTGWHQDIRYWSFSDDDLVSCWLALGDERADNGGLYFVPGSHTASFMPEQYDARKFFRDDLPQNQEWIGRAVCPELQAGDVVFFHCRTLHAARQNATDTVKLSLVHTYHPASCHPLPGTRSAGSPGVPLPLEHHHHHH,not soluble
18,NVHREWAANEKTAMESALGMSYAGKRALVCMKHVGMNVAADCFMNAAITGANGGMVIVAADDPSMHSSQNEQDSRVYGQFAMIPVMEPSNQQEAYDMTRLAFDLSERLGTPVMMRITTRLAHSRAGVVQTEPIGENELHLPEDKRQYVLLPGIAKKRYRILLDKQTDFVRESENSPYTEYVDAADKSKGIVACGIAYNYLMEAFKAQVPYPVLKVTQYPIPHKQMERLLNECGDIVVMEEGYPVVEQLLKGFPGLERIKGRLDGTLPRDGELNPDHVAKAFNIPVVEGEPIPDLVAARPPALCKGCSHRDVYDALNEVLTEYPNGRVFSDIGCYTLGALPPYEAINSCVDMGASITMAKGAADAGLFPAVSVIGDSTFTHSGITGLLDAINENSNITVIISDNESISMTGGQH,not soluble
19,MELKDRIKAARKHAHLSQVQLAQAVGMTQTSISDLERGKSRATSFVAQIAGACGVNPLWLAEGRGEMLAERGQANAGPNASWLGAVESWDDETPLDADEIELPFYKEIELSGGKGSTVILQTGGRKLRFGKYTLRKKNIDPASAACVTVSGNSMEPVLPDGSTVGVDTSARTIKDGDMYAFDHDGQLRVKLLYRLPGGGLRIRSFNSDEHPDERYEPQEAAEHINVIGRVFWYSVLV,not soluble
20,MANVSLNKVDKQALVHQPNLLRECFALLVNAHYQTSPNDLLHLLRDDNSSVYLAMDKQNIIGVILTVEEGGLDDELIEAIQLGQRRPKGHLTPITIINQLGLVKVGKLITSRVMRIAVHPDLQGSGIGKRMLTLLEESVGAHVDYLSTSFGATDELIQFWQQAGYQSIRLGTMRDAASGCYSLLMVRQLANKSQ,not soluble
21,MNPLAQKLNDEIKQSSPEVLDMMSQLGKDMFYPKGILSQSAEAKRTTYNATIGMATKKEGKMYANSLNQMFNDLTPDEIFPYAPPQGVEELRDLWQKKMLKENPDLKSKSISRPIVTNALTHGLSLVADLFVDTDDTVLLPTHNWGNYKLVFSTRHGAHIDTYSIFDNSGHFTTSELVKTLKEYKKDKVIIILNYPNNPTGYTPNKEEVNTIVNAIEELANKGTKVVTVVDDAYYGLFYEEVYQQSIFTALTQVKSSNLLPVRLDGATKEFFSWGFRVGFMTFGIDHETLKNALEAKVKGLIRSNISSSPLPSQSAIKHVLKHHEQFDKEIDQNINILKERYEVTKQVVYDNKYAKYWQAYDFNSGYFMSLKLNQVDPEELREHLINNYSIGIIALNSTDIRIAFSCVEKEDIPYVFESIANAIDDIK,not soluble
22,MTGSDISHILKEGELEKRSDNLLQFWKRKTCVLTTDSLNIYTDQQKKNKSKELKLQSIKKVDCVEHTGKFVYFTIVTTDNKEIDFRCSDEKNCWNAVIAIALVNFQNRKAIQGFKTQKESENTSLGQQERCMARAP,not soluble
